The values that follow come from article PMC4887207, “Viral hijacking of a replicative helicase loader and its implications for helicase loading control and phage replication” (eLife, 2016).

Data set [1] addresses SeMet-SaDnaI^AAA+ (Staphylococcus aureus) (UniProt Q3ZUA6). In words: crystal structure; ADP•BeF3-bound SaDnaI^AAA+•77ORF104 complex, SeMet SAD, 1.9 Å; complex formed with two-fold excess of 77ORF104.
The target of data set [2] is SaDnaI^AAA+ (residues 136-306) (Staphylococcus aureus) (UniProt Q3ZUA6). In words: fluorescence polarisation; anisotropy-based competition; 20 nM labeled 77ORF104 and 2 µM SaDnaI^AAA+, unlabeled 77ORF104 or mutant titrated; 50 mM HEPES-KOH pH 7.5, 125 mM KCl, 10% glycerol, 5 mM MgCl2, 1 mM DTT; apparent. A general note: Polarisation of emitted light reports the rotation of a fluorescent probe.

In data set [3] the target is SaDnaI^AAA+ (residues 136-306) (UniProt Q3ZUA6). In words: competition-based fluorescence anisotropy assay. The note with it: read at the highest unlabeled competitor concentration (last point, just beyond the 10 µM tick); the competitor displaces N-terminally labeled wild-type …; parent: est. 20; read off a plot.
The target in data set [4] is N-terminally labeled, wild-type 77ORF104 (Staphylococcus bacteriophage 77). Description: fluorescence polarisation; fluorescence anisotropy; 20 nM N-terminally AlexaFluor 488-labeled 77ORF104, unlabeled protein titrated in 2-fold steps; 50 mM HEPES-KOH pH 7.5, 125 mM KCl, 10% glycerol, 5 mM MgCl2, 1 mM DTT; single-site fit; apparent.
Data set [5] concerns the molecule itself. Description: SEC; analytical gel filtration, 5/150 GL Superdex 200; 20 mM Tris-HCl pH 8.0, 200 mM NaCl, 5% glycerol, 5 mM MgCl2, 1 mM BME, 10 mM ATP; 7 µM SaDnaC, 14 µM SaDnaI, 14 µM 77ORF013, 30 µM 77ORF104; peak fractions on SDS-PAGE.
Data set [6] deals with the molecule itself. In words: centrifugal pelleting assay; 90 µM SaDnaI with or without 180 µM 77ORF104, 20 min on ice, 14,000 x g 1 min; 20 mM HEPES-KOH pH 7.5, 100 mM NaCl, 10% glycerol, 5 mM MgCl2, 6 mM ATP; SDS-PAGE of pellet and supernatant.

The stoichiometry N is a count of units in the complex or per binding partner. In the case of phage 77 ORF104 protein, the stoichiometry N in data set [1] was determined as 1.
Regarding “phage 77 ORF104 protein (natural protein)”, in data set [2], the Ki is 1.62 µM.
In the case of phage 77 ORF104 protein K39E, the response in data set [3] is 26 mA.
As to phage 77 ORF104 protein Y17E, the response in data set [3] stood at 57 mA.

B1: SaDnaI^AAA+ (residues 136-306) (domain or fragment)
chain: DRLDVAMAADDICTAITNGEQVKGLYLYGPFGTGKSFILGAIANQLKSKKVRSTIIYLPEFIRTLKGGFKDGSFEKKLHRVREANILMLDDIGAEEVTPWVRDEVIGPLLHYRMVHELPTFFSSNFDYSELEHHLAMTRDGEEKTKAARIIERVKSLSTPYFLSGENFRNN
As to B1, the Kd in data set [4] worked out at 0.049 µM.

B2: SaDnaC replicative helicase (natural protein, Staphylococcus aureus, UniProt Q9AQH7 1-466, looked up)
chain: MDRMYEQNQMPHNNEAEQSVLGSIIIDPELINTTQEVLLPESFYRGAHQHIFRAMMHLNEDNKEIDVVTLMDQLSTEGTLNEAGGPQYLAELSTNVPTTRNVQYYTDIVSKHALKRRLIQTADSIANDGYNDELELDAILSDAERRILELSSSRESDGFKDIRDVLGQVYETAEELDQNSGQTPGIPTGYRDLDQMTAGFNRNDLIILAARPSVGKTAFALNIAQKVATHEDMYTVGIFSLEMGADQLATRMICSSGNVDSNRLRTGTMTEEDWSRFTIAVGKLSRTKIFIDDTPGIRINDLRSKCRRLKQEHGLDMIVIDYLQLIQGSGSRASDNRQQEVSEISRTLKALARELKCPVIALSQLSRGVEQRQDKRPMMSDIRESGSIEQDADIVAFLYRDDYYNRGGDEDDDDDGGFEPQTNDENGEIEIIIAKQRNGPTGTVKLHFMKQYNKFTDIDYAHADMM
notes: Staphylococcus aureus replicative helicase DnaC (a DnaB-family helicase); also called S. aureus DnaC replicative helicase; host helicase; not shown: His6, N-terminal, cleaved; MBP, N-terminal, cleaved
Consider B2, for which the “stoichiometry N” value in data set [5] turned out to be 2.

B3: full-length Staphylococcus aureus DnaI (natural protein, UniProt Q3ZUA6 1-306, looked up)
chain: MKQFKSIINTSQDFEKRIEKIKKEVINDPDVKQFLEAHRAELTNAMIDEDLNVLQEYKDQQKHYDGHKFADCPNFVKGHVPELYVDNNRIKIRYLQCPCKIKYDEERFEAELITSHHMQRDTLNAKLKDIYMNHRDRLDVAMAADDICTAITNGEQVKGLYLYGPFGTGKSFILGAIANQLKSKKVRSTIIYLPEFIRTLKGGFKDGSFEKKLHRVREANILMLDDIGAEEVTPWVRDEVIGPLLHYRMVHELPTFFSSNFDYSELEHHLAMTRDGEEKTKAARIIERVKSLSTPYFLSGENFRNN
notes: Staphylococcus aureus helicase loader DnaI, residues 1-306 by the limits of the domain constructs; Residues 136-306 are in PDB 5HE8 and 5HE9; also called SaDnaI; FL SaDnaI; not shown: His6, N-terminal, cleaved; MBP, N-terminal, cleaved
Turning to B3, in data set [6], the binding result was “binds”.
